Patent publication US20050142135A1, “Agents and methods for modulating interactions between gonadotropin hormones and receptors” (University of Kentucky Research Foundation, priority 2003, published 2005)

Assays:
human FSHR [1] = assay: FSH dependent intracellular cAMP assay, wild type and mutant FSHR in HEK 293 cells; assay type: cell-based; conditions: for FSH dependent cAMP induction / EC50 compared with the wild type receptor, in words: HEK 293 cells
Description: (§1) Mutant FSHR cDNAs were prepared in the pSELECT vector using the Altered Sites Mutagenesis system (Promega), sequenced on a Beckman CEQ 2000XL capillary sequencer, subcloned into pcDNA3 (Invitrogen), and sequenced again to verify mutation sequences. […] Wild type and mutant receptor constructs were transfected into HEK 293 cells by the calcium phosphate method as previously described. Stable cell lines were established in minimum essential medium containing 10% horse serum and 500 μg/ml of G418. These cells were used for hormone binding, cAMP production. All assays were carried out in duplicate and repeated 4-5 times, and means±S.D. were calculated.
(§2) The Kd values were determined by Scatchard plots. For intracellular cAMP assay, cells were washed twice with Dulbecco's modified Eagle's medium and incubated in the medium containing 0.1 μg/ml isobutylmethylxanthine for 15 mm. Increasing concentrations of FSH were then added and incubation was continued for 45 mm at 37° C. After removing the medium, the cells were rinsed once with fresh medium without isobutylmethylxanthine, lysed in 70% ethanol, freeze-thawed in liquid nitrogen, and scraped.
(§3) Human FSH (the National Hormone and Pituitary Program) was radioiodinated as previously described for radioiodination of hCG. […] The Kd values were determined by Scatchard plots. Truncated exodomain was solubilized in Nonidet P-40 and assayed for hormone binding as described previously. For intracellular cAMP assay, cells were washed twice with Dulbecco's modified Eagle's media and incubated in the media containing isobutylmethylxanthine (0.1 mg/ml) for 15 minutes. Increasing concentrations of FSH were then added and the incubation was continued for 45 minutes at 37° C. After removing the media, the cells were rinsed once with fresh media without isobutylmethylxanthine, lysed in 70% ethanol, freeze-thawed in liquid nitrogen, and scraped. […] Exoloop 3 of FSHR was modeled based on the crystal structure of rhodopsin as a template.

human FSHR [2] = assay: ^125I-FSH binding to wild type and mutant FSH receptors on intact stably transfected HEK 293 cells; conditions: intact HEK 293 cells
Description: as §1, §2
Each mutant human FSHR cDNA was prepared in a pSELECT vector using the non-PCR based Altered Sites Mutagenesis System (Promega), sequenced on a Beckman CEQ 2000XL capillary sequencer and subcloned into pcDNA3 (Invitrogen) as described. After subcloning pcDNA3 the mutant cDNAs were sequenced again. Plasmids were transfected into human embryonic kidney (HEK) 293 cells by the calcium phosphate method. Stable cell lines were established in minimum essential medium containing 10% horse serum and 500 μg/ml of G-418, and then used for hormone binding and cAMP assay. All assays were carried out in duplicate and repeated 4-6 times. Means and standard variations were calculated.
as §3

| Molecule | FSH dependent cAMP induction / EC50 compared with the wild type receptor, in words (human FSHR [1]) | reduction (improvement) of the EC50 value of cAMP induction compared with wild type (human FSHR [1]; FSH dependent cAMP) [fold] | FSH binding / Kd compared with the wild type receptor, in words (human FSHR [2]) | FSH binding / Kd compared with the wild type receptor, in words (human FSHR [2]; listed as FSHR^N10A) | FSH binding / Kd compared with the wild type receptor, in words (human FSHR [2]; listed as FSHR^L14A) |
| --- | --- | --- | --- | --- | --- |
| L^583 Q: human FSHR mutant, Gln for L583 (protein) CHHRICHCSNRVFLCQESKVTEIPSDLPRNAIELRFVLTKLRVIQKGAFSGFGDLEKIEISQNDVLEVIEADVFSNLPKLHEIRIEKANNLLYINPEAFQNLPNLQYLLISNTGIKHLPDVHKIHSLQKVLLDIQDNINIHTIERNSFVGLSFESVILWLNKNGIQEIHNCAFNGTQLDELNLSDNNNLEELPNDVFHGASGPVILDISRTRIHSLPSYGLENLKKLRARSTYNLKKLPTLEKLVALMEASLTYPSHCCAFANWRRQISELHPICNKSILRQEVDYMTQARGQRSSLAEDNESSYSRGFDMTYTEFDYDLCNEVVDVTCSPKPDAFNPCEDIMGYNILRVLIWFISILAITGNIIVLVILTTSQYKLTVPRFLMCNLAFADLCIGIYLLLIASVDIHTKSQYHNYAIDWQTGAGCDAAGFFTVFASELSVYTLTAITLERWHTITHAMQLDCKVQLRHAASVMVMGWIFAFAAALFPIFGISSYMKVSICLPMDIDSPLSQLYVMSLLVLNVLAFVVICGCYIHIYLTVRNPNIVSSSSDTRIAKRMAMLIFTDFLCMAPISFFAISASLKVPQITVSKAKILLVLFHPINSCANPFLYAIFTKNFRRDFFILLSKCGCYEMQAQIYRTETSSTVHNTHPRNGHCSSAPRVTSGSTYILVPLSHLAQN | induced a marginal level of cAMP | – | – | – | – |
| L^14A: human FSHR with Ala substituted for L14 (protein) CHHRICHCSNRVFACQESKVTEIPSDLPRNAIELRFVLTKLRVIQKGAFSGFGDLEKIEISQNDVLEVIEADVFSNLPKLHEIRIEKANNLLYINPEAFQNLPNLQYLLISNTGIKHLPDVHKIHSLQKVLLDIQDNINIHTIERNSFVGLSFESVILWLNKNGIQEIHNCAFNGTQLDELNLSDNNNLEELPNDVFHGASGPVILDISRTRIHSLPSYGLENLKKLRARSTYNLKKLPTLEKLVALMEASLTYPSHCCAFANWRRQISELHPICNKSILRQEVDYMTQARGQRSSLAEDNESSYSRGFDMTYTEFDYDLCNEVVDVTCSPKPDAFNPCEDIMGYNILRVLIWFISILAITGNIIVLVILTTSQYKLTVPRFLMCNLAFADLCIGIYLLLIASVDIHTKSQYHNYAIDWQTGAGCDAAGFFTVFASELSVYTLTAITLERWHTITHAMQLDCKVQLRHAASVMVMGWIFAFAAALFPIFGISSYMKVSICLPMDIDSPLSQLYVMSLLVLNVLAFVVICGCYIHIYLTVRNPNIVSSSSDTRIAKRMAMLIFTDFLCMAPISFFAISASLKVPLITVSKAKILLVLFHPINSCANPFLYAIFTKNFRRDFFILLSKCGCYEMQAQIYRTETSSTVHNTHPRNGHCSSAPRVTSGSTYILVPLSHLAQN | lower than the wild type value | – | improved hormone binding | – | lower than the wild type value |

Now from value to molecule, other results behind:

| FSH dependent cAMP induction / EC50 compared with the wild type receptor, in words (human FSHR [1]) | reduction (improvement) of the EC50 value of cAMP induction compared with wild type (human FSHR [1]; FSH dependent cAMP) [fold] | Molecule | FSH binding / Kd compared with the wild type receptor, in words (human FSHR [2]) | FSH binding / Kd compared with the wild type receptor, in words (human FSHR [2]; listed as FSHR^N10A) | FSH binding / Kd compared with the wild type receptor, in words (human FSHR [2]; listed as FSHR^L14A) |
| --- | --- | --- | --- | --- | --- |
| lower than the wild type value | – | N^10A: human FSHR with Ala substituted for N10 (protein) CHHRICHCSARVFLCQESKVTEIPSDLPRNAIELRFVLTKLRVIQKGAFSGFGDLEKIEISQNDVLEVIEADVFSNLPKLHEIRIEKANNLLYINPEAFQNLPNLQYLLISNTGIKHLPDVHKIHSLQKVLLDIQDNINIHTIERNSFVGLSFESVILWLNKNGIQEIHNCAFNGTQLDELNLSDNNNLEELPNDVFHGASGPVILDISRTRIHSLPSYGLENLKKLRARSTYNLKKLPTLEKLVALMEASLTYPSHCCAFANWRRQISELHPICNKSILRQEVDYMTQARGQRSSLAEDNESSYSRGFDMTYTEFDYDLCNEVVDVTCSPKPDAFNPCEDIMGYNILRVLIWFISILAITGNIIVLVILTTSQYKLTVPRFLMCNLAFADLCIGIYLLLIASVDIHTKSQYHNYAIDWQTGAGCDAAGFFTVFASELSVYTLTAITLERWHTITHAMQLDCKVQLRHAASVMVMGWIFAFAAALFPIFGISSYMKVSICLPMDIDSPLSQLYVMSLLVLNVLAFVVICGCYIHIYLTVRNPNIVSSSSDTRIAKRMAMLIFTDFLCMAPISFFAISASLKVPLITVSKAKILLVLFHPINSCANPFLYAIFTKNFRRDFFILLSKCGCYEMQAQIYRTETSSTVHNTHPRNGHCSSAPRVTSGSTYILVPLSHLAQN | improved hormone binding | lower than the wild type value | – |
| considerably lower EC50 value | 3 | S^18A: human FSHR with Ala substituted for S18 (protein) CHHRICHCSNRVFLCQEAKVTEIPSDLPRNAIELRFVLTKLRVIQKGAFSGFGDLEKIEISQNDVLEVIEADVFSNLPKLHEIRIEKANNLLYINPEAFQNLPNLQYLLISNTGIKHLPDVHKIHSLQKVLLDIQDNINIHTIERNSFVGLSFESVILWLNKNGIQEIHNCAFNGTQLDELNLSDNNNLEELPNDVFHGASGPVILDISRTRIHSLPSYGLENLKKLRARSTYNLKKLPTLEKLVALMEASLTYPSHCCAFANWRRQISELHPICNKSILRQEVDYMTQARGQRSSLAEDNESSYSRGFDMTYTEFDYDLCNEVVDVTCSPKPDAFNPCEDIMGYNILRVLIWFISILAITGNIIVLVILTTSQYKLTVPRFLMCNLAFADLCIGIYLLLIASVDIHTKSQYHNYAIDWQTGAGCDAAGFFTVFASELSVYTLTAITLERWHTITHAMQLDCKVQLRHAASVMVMGWIFAFAAALFPIFGISSYMKVSICLPMDIDSPLSQLYVMSLLVLNVLAFVVICGCYIHIYLTVRNPNIVSSSSDTRIAKRMAMLIFTDFLCMAPISFFAISASLKVPLITVSKAKILLVLFHPINSCANPFLYAIFTKNFRRDFFILLSKCGCYEMQAQIYRTETSSTVHNTHPRNGHCSSAPRVTSGSTYILVPLSHLAQN | higher Kd value | – | – |
